Tests used:
[1] = biological target: porcine cardiac ventricular myosin (βmys) (porcine) (UniProt P79293)
[2] = biological target: porcine cardiac ventricular myosin (βmys) (porcine) (UniProt P79293); remark: listed apart in the source

bovine ventricular actin (cardiac actin) (from UniProt Q3ZC07 1-377) (natural protein)
actin-activated myosin ATPase, Km (value of the running text) [1]: 3.6 µM | actin-activated myosin ATPase, Km (0.6 µM myosin titrated with 1–50 µM F-actin, 25 mM KCl, 21°C) [2]: 3.7 µM
